For two substances, β-galactosidase signal over background (times above the background level) results are on record in article PMC8015186.

The target in test [1] is TraWF in the BACTH-TM vectors (E. coli (F-plasmid)) (UniProt P18472). The experiment in a line: two-hybrid.
For test [2], the target named is TraBN with T18 or T25 at its N-terminus (BACTH) (Neisseria gonorrhoeae MS11) (UniProt Q5EPB9). The experiment in a line: two-hybrid.

In the case of “TraVF in the BACTH-TM vectors (from UniProt P41069 19-171) (natural protein)”, in test [1], the β-galactosidase signal over background (times above the background level) turned out to be 8.

Take “TrbCN in the BACTH-TM vectors (natural protein)”: in test [2], the β-galactosidase signal over background (times above the background level) was 4.
